The source of these data is patent publication US20240174992A1, “SPLIT MODIFIED DEHALOGENASE VARIANTS” (Promega Corporation, priority 2022, published 2024).

Among the targets are HaloTag[22-297](M2F)-FRB (UniProt P42345); HT(146-297)-FRB (UniProt P42345); HT(158-297)-FRB (UniProt P42345); [196-297]-FRB (UniProt P42345).
Assay in all cases: cell-based or functional assay
Test [1] addresses HaloTag[22-297](Q145H+P154R)-FRB (UniProt P42345).
For test [2], the target named is HT(23-297)-FRB fragment fused to LgBiT (UniProt P42345).
Sequence of HT(23-297)-FRB fragment fused to LgBiT (P42345 other isoform, or with tags, fused parts or gaps): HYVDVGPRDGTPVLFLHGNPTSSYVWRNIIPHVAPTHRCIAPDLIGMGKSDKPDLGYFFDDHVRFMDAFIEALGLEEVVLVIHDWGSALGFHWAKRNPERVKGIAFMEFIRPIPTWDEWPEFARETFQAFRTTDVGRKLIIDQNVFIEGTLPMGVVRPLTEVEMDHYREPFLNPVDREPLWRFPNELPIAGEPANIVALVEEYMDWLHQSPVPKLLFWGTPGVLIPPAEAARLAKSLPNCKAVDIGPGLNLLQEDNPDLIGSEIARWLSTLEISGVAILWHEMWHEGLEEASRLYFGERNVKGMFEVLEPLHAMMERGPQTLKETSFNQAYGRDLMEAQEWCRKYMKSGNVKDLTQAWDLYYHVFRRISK

Sequence of HaloTag[22-297](Q145H+P154R)-FRB (P42345 other isoform, or with tags, fused parts or gaps Q145H P154R Q145H P154R): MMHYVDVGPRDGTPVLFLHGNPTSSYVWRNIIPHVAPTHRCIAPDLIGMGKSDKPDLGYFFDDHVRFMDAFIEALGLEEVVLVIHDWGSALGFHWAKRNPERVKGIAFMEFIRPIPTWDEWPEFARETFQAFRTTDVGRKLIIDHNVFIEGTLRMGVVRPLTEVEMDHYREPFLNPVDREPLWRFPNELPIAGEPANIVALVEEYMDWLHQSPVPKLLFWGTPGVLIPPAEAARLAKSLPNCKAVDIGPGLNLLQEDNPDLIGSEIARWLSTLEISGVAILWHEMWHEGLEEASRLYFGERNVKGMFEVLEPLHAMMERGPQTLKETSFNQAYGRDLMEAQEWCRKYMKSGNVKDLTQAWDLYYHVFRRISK
Sequence of EGFP-FKBP-HaloTag[3-19] (P62942 other isoform, or with tags, fused parts or gaps): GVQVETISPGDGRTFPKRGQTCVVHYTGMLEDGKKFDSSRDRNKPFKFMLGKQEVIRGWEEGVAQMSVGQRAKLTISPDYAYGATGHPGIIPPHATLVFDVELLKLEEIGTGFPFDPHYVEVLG
Sequence of [196-297]-FRB (P42345 other isoform, or with tags, fused parts or gaps limits assumed): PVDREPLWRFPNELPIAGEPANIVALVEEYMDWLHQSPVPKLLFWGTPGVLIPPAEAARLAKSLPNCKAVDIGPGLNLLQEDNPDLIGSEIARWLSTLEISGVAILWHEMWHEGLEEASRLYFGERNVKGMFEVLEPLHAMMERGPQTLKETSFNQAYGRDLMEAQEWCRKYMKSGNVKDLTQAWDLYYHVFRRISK
Sequence of FKBP-HT(1-33) fragment as SmBiT or HiBiT fragment fusions (P62942 other isoform, or with tags, fused parts or gaps): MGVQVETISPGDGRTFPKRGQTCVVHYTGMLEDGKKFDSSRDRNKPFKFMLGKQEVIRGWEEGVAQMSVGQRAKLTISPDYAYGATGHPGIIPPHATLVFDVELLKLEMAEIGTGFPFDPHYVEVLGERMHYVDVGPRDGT
Sequence of HaloTag[22-297](M2F)-FRB (P42345 other isoform, or with tags, fused parts or gaps): as the sequence (P42345 other isoform, or with tags, fused parts or gaps Q145H P154R Q145H P154R) above, with M2F, H145Q, R154P counted along it
Sequence of [1-195]-FKBP (P62942 other isoform, or with tags, fused parts or gaps): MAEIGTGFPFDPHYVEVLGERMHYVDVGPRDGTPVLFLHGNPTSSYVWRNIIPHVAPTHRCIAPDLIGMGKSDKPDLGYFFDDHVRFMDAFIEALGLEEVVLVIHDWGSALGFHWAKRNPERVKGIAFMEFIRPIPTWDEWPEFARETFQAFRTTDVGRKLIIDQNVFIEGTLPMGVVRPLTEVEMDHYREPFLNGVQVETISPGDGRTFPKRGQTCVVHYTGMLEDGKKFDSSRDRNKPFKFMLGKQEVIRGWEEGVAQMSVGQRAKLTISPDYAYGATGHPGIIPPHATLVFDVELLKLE
Sequence of HT(158-297)-FRB (P42345 other isoform, or with tags, fused parts or gaps limits assumed): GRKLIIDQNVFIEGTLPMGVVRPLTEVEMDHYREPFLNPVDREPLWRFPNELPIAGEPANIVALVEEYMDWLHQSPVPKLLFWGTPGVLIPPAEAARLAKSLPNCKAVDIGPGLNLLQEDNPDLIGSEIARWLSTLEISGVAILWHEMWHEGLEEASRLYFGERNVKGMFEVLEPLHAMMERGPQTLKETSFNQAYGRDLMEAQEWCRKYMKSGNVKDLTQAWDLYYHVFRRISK
Sequence of HT(146-297)-FRB (P42345 other isoform, or with tags, fused parts or gaps limits assumed): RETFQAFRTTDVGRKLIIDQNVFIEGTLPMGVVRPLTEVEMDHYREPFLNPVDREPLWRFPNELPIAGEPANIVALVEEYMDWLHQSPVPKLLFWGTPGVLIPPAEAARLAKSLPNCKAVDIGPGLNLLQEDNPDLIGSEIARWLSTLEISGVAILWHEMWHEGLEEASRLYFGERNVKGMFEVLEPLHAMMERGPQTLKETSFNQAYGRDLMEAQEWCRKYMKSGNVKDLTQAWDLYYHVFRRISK
Sequence of HT(1-157)-FKBP (P62942 other isoform, or with tags, fused parts or gaps): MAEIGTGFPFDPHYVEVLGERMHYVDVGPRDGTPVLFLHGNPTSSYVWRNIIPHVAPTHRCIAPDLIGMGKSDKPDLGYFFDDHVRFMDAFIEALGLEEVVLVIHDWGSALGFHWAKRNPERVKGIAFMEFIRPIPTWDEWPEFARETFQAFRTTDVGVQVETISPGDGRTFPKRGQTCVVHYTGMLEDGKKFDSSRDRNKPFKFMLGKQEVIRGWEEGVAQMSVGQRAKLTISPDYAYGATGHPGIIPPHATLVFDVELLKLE
Sequence of HT(1-145)-FKBP (P62942 other isoform, or with tags, fused parts or gaps): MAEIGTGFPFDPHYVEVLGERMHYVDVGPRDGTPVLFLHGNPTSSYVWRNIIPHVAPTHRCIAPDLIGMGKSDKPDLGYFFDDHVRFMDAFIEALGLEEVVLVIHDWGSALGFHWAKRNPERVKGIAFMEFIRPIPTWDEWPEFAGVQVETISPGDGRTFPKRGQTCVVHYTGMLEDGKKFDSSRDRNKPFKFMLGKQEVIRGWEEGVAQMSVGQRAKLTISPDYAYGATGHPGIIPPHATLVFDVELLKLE

With “EGFP-FKBP-HaloTag[3-19] (from UniProt P62942 2-108)”, in the test with HaloTag[22-297](M2F)-FRB, the S:B ratio in +rapamycin/-rapamycin conditions, live HeLa imaging worked out at 6.7 and the signal-to-background ratio, complemented split HaloTag with rapamycin over the large HaloTag alone turned out to be 16. In test [1], the S:B ratio in +rapamycin/-rapamycin conditions, live HeLa imaging was 4; the fold response of JF646 fluorescence to rapamycin, live HeLa imaging was 25 fold; the signal-to-background ratio, complemented split HaloTag with rapamycin over the large HaloTag alone came to 5.7.
“FKBP-HT(1-33) fragment as SmBiT or HiBiT fragment fusions (from UniProt P62942 1-108)” showed a fold increase in NanoBiT luminescence on addition of rapamycin in test [2] of 100 to 250 fold.
In the case of “HT(1-145)-FKBP (from UniProt P62942 2-108)”, the fold increase of JF646 and JF585 fluorescence in live HeLa cells with 50 nM rapamycin with HT(146-297)-FRB was under 2 fold.
“HT(1-157)-FKBP (from UniProt P62942 2-108)” had a fold increase of JF646 and JF585 fluorescence in live HeLa cells with 50 nM rapamycin with HT(158-297)-FRB of under 2 fold.
In test [196-297]-FRB, “[1-195]-FKBP (from UniProt P62942 2-108)” gave a fold increase in JF646 fluorescence with 50 nM rapamycin (E. coli lysates) of 4.7 fold; a fold increase of JF646 and JF585 fluorescence in live HeLa cells with 50 nM rapamycin of under 2 fold.
